Earlier results on one molecule are cited in publication PMC4937678, “In Vivo Measurement and Characterization of a Novel Formulation of [^177Lu]-DOTA-Octreotate” (Asia Oceania Journal of Nuclear Medicine and Biology, 2016).

On this data set, the source says: Table 4 Comparison of Published Radiation Dose Estimates for Different Formulations of [^177Lu]-DOTA-Octreotate ([3], [7]-[11]) | column: Dose (mGy/MBq)
Where [1] appears, read: 6 subjects, ref Kwekkeboom (2001) [3].
[2] abbreviates: 10 subjects, value (range), ref Cremonesi (2006) [10].
Where [3] appears, read: 24 subjects, range, ref Sandstrom (2010) [8].

Where two headings read alike, the source gives them in different places.

For the molecule `C[C@@H](O)[C@H](NC(=O)[C@@H]1CSSC[C@H](NC(=O)[C@@H](Cc2ccccc2)NC(=O)CN2CCN(CC(=O)[O-])CCN(CC(=O)[O-])CCN(CC(=O)[O-])CC2)C(=O)N[C@@H](Cc2ccc(O)cc2)C(=O)N[C@H](Cc2c[nH]c3ccccc23)C(=O)N[C@@H](CCCCN)C(=O)N[C@@H]([C@@H](C)O)C(=O)N1)C(=O)O.[177Lu+3]` [[^177Lu]-DOTA-Octreotate], the “Dose, Liver” value is, setting by setting: under setting [1], 0.21 ± 0.08 mGy/MBq; under setting [2], 0.18 (0.05 – 0.34) mGy/MBq. Moreover, the “Dose, Red Marrow” value is reported as 0.07 ± 0.01 mGy/MBq under setting [1]; 0.04 (0.02 – 0.06) mGy/MBq under setting [2]; 0.02 ± 0.03 mGy/MBq (14 subjects, ref Forrer (2009) [9]); 0.04 ± 0.02 mGy/MBq (27 subjects, ref Wehrmann (2007) [11]). The “Dose, Spleen” value under setting [1] is reported as 2.15 ± 0.39 mGy/MBq; the “Dose, Spleen” value under setting [2] is 0.64 (0.29-2.91) mGy/MBq; the “Dose, Spleen” value (73 subjects, ref Wehrmann (2007) [11]) was 1.2 ± 0.5 mGy/MBq. Moreover, the “Dose, Kidney (range)” value under setting [3] is “(0.32 – 1.67) mGy/MBq”. The “Dose, Liver (range)” value under setting [3] was “(0.13 – 1.10) mGy/MBq”. Also, the “Dose, Spleen (range)” value under setting [3] is 0.21 – 1.86 mGy/MBq. For the same molecule, the “Dose, Kidney” value (89 subjects, ref Wehrmann (2007) [11]) was 0.9 ± 0.3 mGy/MBq; the “Dose, Kidney” value (no renal protection, 6 subjects, ref Kwekkeboom (2001) [3]) is 1.65 mGy/MBq; the “Dose, Kidney” value (with renal protection, 5 subjects, ref Kwekkeboom (2001) [3]) is listed as 0.88 mGy/MBq.
